Data: PMC6499106, “The CXCR4-LASP1-eIF4F Axis Promotes Translation of Oncogenic Proteins in Triple-Negative Breast Cancer Cells” (Frontiers in Oncology, 2019)

Molecular target: T1, eIF4E, the cap binding subunit of eIF4F, endogenous in 231S cells (human (endogenous in 231S, MDA-MB-231), UniProt P06730 1-217)
T1 construct: source: endogenous, 231S cells, in lysate, held on m7-GTP agarose beads
Test: pull-down; m7-GTP agarose beads with 1 mg 231S lysate in Co-IP buffer overnight at 4°C; cells stimulated with 20 nM CXCL12 over time, with or without 100 nM AMD3465; eIF4E as precipitate, LASP1 or eIF4G as co-precipitate by Western blot
Conditions: partners not purified

T1 sequence (P06730 whole entry): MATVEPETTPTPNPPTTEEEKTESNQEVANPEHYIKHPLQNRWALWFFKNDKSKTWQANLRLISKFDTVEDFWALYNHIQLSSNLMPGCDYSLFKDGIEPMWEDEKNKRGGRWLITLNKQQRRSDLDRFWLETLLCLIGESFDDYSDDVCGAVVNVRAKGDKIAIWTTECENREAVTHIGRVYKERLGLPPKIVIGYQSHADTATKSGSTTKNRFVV

B1: LIM and SH3 Protein 1 (LASP1), endogenous in 231S cells (natural protein, human (endogenous in 231S, MDA-MB-231), UniProt Q14847 1-261, looked up)
chain: MNPNCARCGKIVYPTEKVNCLDKFWHKACFHCETCKMTLNMKNYKGYEKKPYCNAHYPKQSFTMVADTPENLRLKQQSELQSQVRYKEEFEKNKGKGFSVVADTPELQRIKKTQDQISNIKYHEEFEKSRMGPSGGEGMEPERRDSQDGSSYRRPLEQQQPHHIPTSAPVYQQPQQQPVAQSYGGYKEPAAPVSIQRSAPGGGGKRYRAVYDYSAADEDEVSFQDGDTIVNVQQIDDGWMYGTVERTGDTGMLPANYVEAI
notes: LIM and SH3 protein 1 (LASP1), endogenous in human 231S breast cancer cells; source: endogenous, 231S (MDA-MB-231 sorted for high CXCR4) cells, in lysate or in situ
fold change of co-precipitate, CXCL12 for 5 min against 0 min: 2.2 fold
